This note sets out measurements from publication PMC3334931, “Characterization of the Single Stranded DNA Binding Protein SsbB Encoded in the Gonoccocal Genetic Island” (PLoS ONE, 2012).

What is called Kd is the concentration at which binding is half-saturated. A word on the stoichiometry N: it is a count of units in the complex or per binding partner.

Data set [1] deals with T1, SsbB (native) (Neisseria gonorrhoeae MS11, UniProt Q5EP75 1-143).
T1 sequence: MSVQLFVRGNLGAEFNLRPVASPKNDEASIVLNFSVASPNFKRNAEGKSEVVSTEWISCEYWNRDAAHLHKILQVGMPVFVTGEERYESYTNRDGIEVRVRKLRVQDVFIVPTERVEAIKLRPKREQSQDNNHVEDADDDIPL
Nature of the data set: EMSA (Coomassie); 1 uM tetramer, 5 uM oligo; minimal frame for one tetramer; EMSA: SBA buffer (10 mM NaOH, 2 mM EDTA, boric acid to pH 7.5), optional 10 mM MgCl2 and/or NaCl up to 500 mM, 4 C 15 min; AFM: 20 mM Tris pH 7.5, 150 mM NaCl. The following applies: protein: recombinant; tags: none; chain copies: 4. In general terms: In EMSA bound probe runs differently from free probe, usually more slowly.

Data set [2] concerns the target T1, SsbB (native). Nature of the data set: tryptophan fluorescence titration; biphasic; 1 oligo per tetramer high affinity, second much weaker; EMSA: SBA buffer (10 mM NaOH, 2 mM EDTA, boric acid to pH 7.5), optional 10 mM MgCl2 and/or NaCl up to 500 mM, 4 C 15 min; AFM: 20 mM Tris pH 7.5, 150 mM NaCl. As to conditions: protein: recombinant; tags: none; chain copies: 4.

The target in data set [3] is T1, SsbB (native). Nature of the data set: EMSA; SBA buffer; (SsbB)4 concentration; one and two tetramer complexes; EMSA: SBA buffer (10 mM NaOH, 2 mM EDTA, boric acid to pH 7.5), optional 10 mM MgCl2 and/or NaCl up to 500 mM, 4 C 15 min; AFM: 20 mM Tris pH 7.5, 150 mM NaCl. The following applies: protein: recombinant; tags: none; chain copies: 4; label: 5' 32P.
The target in data set [4] is T1, SsbB (native). Nature of the data set: EMSA (Coomassie); 1 uM tetramer, 0.25 uM oligo; minimal frame for two tetramers; EMSA: SBA buffer (10 mM NaOH, 2 mM EDTA, boric acid to pH 7.5), optional 10 mM MgCl2 and/or NaCl up to 500 mM, 4 C 15 min; AFM: 20 mM Tris pH 7.5, 150 mM NaCl. The following applies: protein: recombinant; tags: none; chain copies: 4.
The target in data set [5] is T1, SsbB (native). Nature of the data set: EMSA; stoichiometric at 8 nM DNA; 1 tetramer per oligo; Cy3 raises affinity at least 10-fold; EMSA: SBA buffer (10 mM NaOH, 2 mM EDTA, boric acid to pH 7.5), optional 10 mM MgCl2 and/or NaCl up to 500 mM, 4 C 15 min; AFM: 20 mM Tris pH 7.5, 150 mM NaCl. The following applies: protein: recombinant; tags: none; chain copies: 4; label: 5' Cy3.

Data set [6] concerns the molecule itself. Nature of the data set: SEC; gel filtration chromatography of the purified proteins; single peaks; data not shown. On the technique in general: SEC sorts molecules by how far they enter the pores of the column.

B1: dT15 (ssDNA)
DNA: TTTTTTTTTTTTTTT
Consider B1, for which the binding result in data set [1] was “binds”.

B2: dT25 (ssDNA)
DNA: TTTTTTTTTTTTTTTTTTTTTTTTT
Consider B2, for which the binding result in data set [2] is reported as “binds”.

B3: 32P-dT75 (ssDNA)
DNA: TTTTTTTTTTTTTTTTTTTTTTTTTTTTTTTTTTTTTTTTTTTTTTTTTTTTTTTTTTTTTTTTTTTTTTTTTTT
With B3, the Kd in data set [3] was roughly 100 nM.

B4: dT70 (ssDNA)
DNA: TTTTTTTTTTTTTTTTTTTTTTTTTTTTTTTTTTTTTTTTTTTTTTTTTTTTTTTTTTTTTTTTTTTTTT
With B4, in data set [4], the binding result is reported as “binds”.

B5: Cy3-dT35 (ssDNA)
DNA: TTTTTTTTTTTTTTTTTTTTTTTTTTTTTTTTTTT
Regarding B5, in data set [5], the binding result was “binds”.

B6: dT35 (ssDNA)
DNA: TTTTTTTTTTTTTTTTTTTTTTTTTTTTTTTTTTT
In the case of B6, the binding result in data set [2] was “binds”.

B7: dT45 (ssDNA)
DNA: TTTTTTTTTTTTTTTTTTTTTTTTTTTTTTTTTTTTTTTTTTTTT
As for B7, in data set [2], the binding result is “binds”.

B8: native SsbB (single stranded DNA binding protein SsbB encoded in the Gonococcal Genetic Island of Neisseria gonorrhoeae) (natural protein, UniProt Q5EP75 1-143, looked up)
chain: MSVQLFVRGNLGAEFNLRPVASPKNDEASIVLNFSVASPNFKRNAEGKSEVVSTEWISCEYWNRDAAHLHKILQVGMPVFVTGEERYESYTNRDGIEVRVRKLRVQDVFIVPTERVEAIKLRPKREQSQDNNHVEDADDDIPL
notes: expressed as the native (untagged) protein; also called WT; GGI SSB; source: E. coli C43 (DE3), purified (Hi-Trap Q, DNA-cellulose, Superdex SD200)
Take B8: the “stoichiometry N” value in data set [6] was found to be 4.

B9: OneSTrEP-tagged SsbB (natural protein, Neisseria gonorrhoeae, UniProt Q5EP75 1-143, looked up)
chain: MSVQLFVRGNLGAEFNLRPVASPKNDEASIVLNFSVASPNFKRNAEGKSEVVSTEWISCEYWNRDAAHLHKILQVGMPVFVTGEERYESYTNRDGIEVRVRKLRVQDVFIVPTERVEAIKLRPKREQSQDNNHVEDADDDIPL
notes: source: E. coli C43 (DE3), purified (Strep-tactin Sepharose, Hi-Trap Q, Superdex SD200); not shown: OneSTrEP tag, N-terminal, kept
Consider B9, for which, in data set [6], the “stoichiometry N” value stood at 4.

B10: His-tagged SsbB (natural protein, Neisseria gonorrhoeae, UniProt Q5EP75 1-143, looked up)
chain: MSVQLFVRGNLGAEFNLRPVASPKNDEASIVLNFSVASPNFKRNAEGKSEVVSTEWISCEYWNRDAAHLHKILQVGMPVFVTGEERYESYTNRDGIEVRVRKLRVQDVFIVPTERVEAIKLRPKREQSQDNNHVEDADDDIPL
notes: also called N- His- tagged SsbB; source: E. coli C43 (DE3), purified (Hi-Trap Chelating Ni, Hi-Trap Q, Superdex SD200); not shown: His tag, N-terminal, kept
As for B10, the “stoichiometry N” value in data set [6] was found to be 4.
